Molecular target: T1, Tolloid-like 1 (TLL-1) (Homo sapiens, UniProt O43897)
T1 chain: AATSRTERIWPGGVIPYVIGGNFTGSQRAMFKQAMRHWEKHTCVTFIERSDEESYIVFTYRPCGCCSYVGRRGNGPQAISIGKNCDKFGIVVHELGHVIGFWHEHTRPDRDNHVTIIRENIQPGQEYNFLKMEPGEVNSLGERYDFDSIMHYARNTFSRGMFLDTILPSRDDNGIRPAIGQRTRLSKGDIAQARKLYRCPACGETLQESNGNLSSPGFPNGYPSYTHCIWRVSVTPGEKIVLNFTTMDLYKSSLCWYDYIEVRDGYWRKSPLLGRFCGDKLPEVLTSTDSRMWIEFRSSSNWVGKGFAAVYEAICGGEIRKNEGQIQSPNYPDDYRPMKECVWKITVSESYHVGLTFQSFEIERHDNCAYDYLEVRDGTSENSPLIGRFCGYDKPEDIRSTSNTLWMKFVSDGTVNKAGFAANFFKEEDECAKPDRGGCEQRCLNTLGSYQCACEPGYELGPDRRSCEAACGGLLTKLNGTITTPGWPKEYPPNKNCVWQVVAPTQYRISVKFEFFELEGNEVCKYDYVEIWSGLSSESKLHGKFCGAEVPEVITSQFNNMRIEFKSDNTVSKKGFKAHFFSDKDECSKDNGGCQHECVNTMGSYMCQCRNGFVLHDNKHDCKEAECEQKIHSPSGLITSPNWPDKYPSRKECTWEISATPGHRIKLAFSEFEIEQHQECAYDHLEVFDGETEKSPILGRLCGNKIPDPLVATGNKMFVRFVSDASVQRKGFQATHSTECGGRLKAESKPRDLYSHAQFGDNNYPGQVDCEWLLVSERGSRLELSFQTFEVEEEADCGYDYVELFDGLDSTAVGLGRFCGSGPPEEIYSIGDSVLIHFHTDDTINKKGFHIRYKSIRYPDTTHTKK
Assay: sedimentation equilibrium AUC

Kd: 2 nM
B1: Tolloid-like 1 (TLL-1) (protein)
chain: T1 chain
modifications: Ca2+ (0.5 mM CaCl2), V5-His6 tag
